Biological target: GST-cIAP1R (cIAP1 RING domain, residues 556-C, with GST) (human) (UniProt Q13490)
Assay: SPR; as a1, but UbcH5B–Ub variants diluted in running buffer containing 0.6 mM UbΔGG; GST-cIAP1R coupled to a CM-5 chip, 25 °C; steady-state affinity analysis

**Q.** How did the Kd turn out when “UbcH5B–Ub in the presence of 0.6 mM UbΔGG (UbcH5B–Ub with backside-bound UbΔGG) (from UniProt P62837 1-147; P0CG47 1-76; P0CG47 1-74) (complex)” was run?
**A.** The Kd was 220 nM.

— article PMC6349121
